Experiment [1] concerns the target T1, recombinant human interleukin-5 (human, UniProt P05113 20-134).
T1 sequence (looked up): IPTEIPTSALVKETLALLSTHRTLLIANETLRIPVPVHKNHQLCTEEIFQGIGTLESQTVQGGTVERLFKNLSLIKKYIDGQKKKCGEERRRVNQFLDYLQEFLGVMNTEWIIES
The experiment is described as follows: cell-based or functional assay.

Experiment [2] deals with T1, recombinant human interleukin-5. The experiment is described as follows: competition ELISA on plates coated with human IL-5; competitor biotinylated JES1-39D10. On the procedure:
Competition assays were carried out in which binding of the biotinylated antibody to plates coated with human IL-5 was measured in the presence of unlabelled antibody JES1-39D10 or antibody CMx5-1, CMX5-2 or CMX5-5, each of which had been purified by protein A/G affinity chromatography.
EIA plates were treated with 0.1 M NaHCO_3, pH 9.2, for 1 hour at room temperature. Human IL-5 in TBS was then added at […]. The plates were incubated overnight at 4° C. and then blocked with 3% BSA-TBS ml for 1 hour at room temperature. Fifty microliters of 2-fold serially diluted competing antibodies plus the appropriate amount of biotinylated antibody JES1-39D10 (also in a 50 μl volume) were added to each well, and the plates were incubated for 1 hour at room temperature.
The plates were then washed 5 times with TBS-Tween-20, incubated with 1 μg/ml horseradish peroxidase (HRP)-streptavidin conjugate for 1 hour at room temperature, washed 5 times with TBS-Tween-20, and developed with HRP substrate TMB. Absorbance of the samples was then measured spectrophotometrically at 450 nm.

For experiment [3] the target is unchanged. The experiment in a line: inhibition of binding of 0.5 nM radiolabeled human IL-5 to IL-5 receptor alpha chains on transfected COS cells.
Experiment [4] has the same target. The experiment is described as follows: captured antibody on plate, 125I-IL-5 binding, Scatchard analysis. On the procedure: To determine whether the humanized antibodies retained the ability to specifically bind to human IL-5, apparent dissociation constants of antibody/antigen complexes were measured. This was done by coating enzyme immunoassay plates with mouse anti-human IgG_4-Fc (5 µg per ml, 100 ill per well) in 50 mM bicarbonate buffer, pH 9.5. The plates were then blocked at room temperature for 90 minutes with BLOTTO, washed 3 times, and incubated at 37° C. for 2 hours with one of the humanized antibodies, either purified (100 µl per well with a final concentration of 0.05 µg per ml) or in the form of conditioned medium (100 µl per well).
After the plates were washed 3 times, a dilution series of ^125I-labeled human IL-5 at concentrations between 4,000 pM and 2 pM was applied to the wells in each plate in final volumes of 100 µl. All test wells were run in triplicate. Background binding was determined by using a 1000-fold molar excess of unlablled human IL-5 in control wells. The reactions were allowed to equilibrate at room temperature for 2 hours, at which time the wells were aspirated and washed 5 times with TBST. The wells were then separated and counted in a Pharmacia LKB γ-counter. All nonspecific binding controls were run in duplicate. The values obtained for bound human IL-5 were subjected to Scatchard analysis (using RADLIG software) to obtain dissociation constant (kd) values.

The source of these data is patent US6451982 (SCHERING, dated 2002).

For orientation: IC50 means the point on the concentration scale where inhibition reaches its midpoint.

As for monoclonal antibody JES1-39D10, in experiment [1], the IC50 (pM), inhibition of IL-5-induced CD11b expression on HL-60 cells amounted to 166 pM; the IC50 CMX5/IC50 39D10, inhibition of IL-5-induced CD11b expression on HL-60 cells (fold against 39D10) turned out to be 1; the MOLAR RATIO CMX5/IL-5, inhibition of IL-5-induced CD11b expression on HL-60 cells (molar ratio antibody:IL-5) was found to be 0.83. The molar ratio to biotinylated JES1-39D10 needed to produce the same degree of binding inhibition in experiment [2] was 1 molar ratio. Further, the IC50 in experiment [3] lay in the range of 0.15 to 0.55 nM.

B1: humanized antibody CMX5-2 (antibody, V domains shown)
VH: QVKLVQAGGGVVQPGRSLRLSCIASGFTFSSNSVNWIRQAPGKGLEWVALIWSNGDTDYNSAIKSRFTISRDNSKSTLYMQMNSLRTEDTAVYFCAREYYGYFDYWGQGVLVTVSS
VL: DIQMTQSPSSLSVSVGDRVTITCLASEGISSYLAWYQQKPGLAPKLLIYGANSLQTGVPSRFSGSGSATDFTLTISSLQPEDIATYYCQQSYKFPNTFGQGTKVDVKR
As for B1, in experiment [1], the “IC50 (pM), inhibition of IL-5-induced CD11b expression on HL-60 cells” value (from here on “IC50 (pM), inhibition”) was 467 pM; the “IC50 CMX5/IC50 39D10, inhibition of IL-5-induced CD11b expression on HL-60 cells” value was 2.8 fold against 39D10; the “MOLAR RATIO CMX5/IL-5, inhibition of IL-5-induced CD11b expression on HL-60 cells” value was 2.3 molar ratio antibody:IL-5. Besides, in experiment [2], the “molar ratio to biotinylated JES1-39D10 needed to produce the same degree of binding inhibition” value (from here on “molar ratio … of binding inhibition”) is about 1.4 molar ratio. The IC50 in experiment [3] is 0.35 to 0.7 nM.

B2: humanized antibody CMX5-4 (antibody, V domains shown)
VH: QVKLVQAGGGVVQPGRSLRLSCIASGLSLTSNGMHWVRQAPGKGLEWVAVIWSNGSRTYYGDSVKGRFTISRDNSKRTLYMQMNSLRTEDTAVYYCAREYYGYFDYWGQGVLVTVSS
VL: DIQMTQSPSSLSVSVGDRVTITCQASEGISSYLNWYQQKPGLAPKLLIYGANTREAGVPSRFSGSGSGTDFTLTISSLQPEDIATYYCQQSYKFPNTFGQGTKVDVKR
notes: VH HIL minimal, VL LAY minimal
In the case of B2, in experiment [4], the binding result was “no binding”.

B3: humanized antibody CMX5-3 (antibody, V domains shown)
VH: EVQLLESGGGLVQPGGSLRLSCAVSGLSLTSNSVNWIRQAPGKGLEWVALIWSNGDTDYNSAIKSRFTISRNDSKNTLYLQMNGLQAEVSAIYFCAREYYGYFDYWGQGTLVTVSS
VL: DIQMTQSPSSLSVSVGDRVTITCLASEGISSYLAWYQQKPGLAPKLLIYGANSLQTGVPSRFSGSGSATDFTLTISSLQPEDIATYYCQQSYKFPNTFGQGTKVDVKR
notes: VH LAY maximal, VL LAY maximal
B3: in experiment [4], the binding result was “binds”.

B4: humanized antibody CMX5-5 (antibody, V domains shown)
VH: QVKLVQAGGGVVQPGRSLRLSCIASGFTFSSNSVNWVRQAPGKGLEWVALIWSNGDTDYNSAIKSRFTISRDNSKRTLYMQMNSLRTEDTAVYYCAREYYGYFDYWGQGVLVTVSS
VL: DIQMTQSPSSLSVSVGDRVTITCLASEGISSYLAWYQQKPGLAPKLLIYGANSLQTGVPSRFSGSGSGTDFTFTISSLQPEDIATYYCQQSYKFPNTFGQGTKVDVKR
notes: Kabat CDRs only on HIL VH and LAY VL
In the case of B4, in experiment [1], the “IC50 (pM), inhibition” value was determined as 800 pM; the “IC50 CMX5/IC50 39D10, inhibition of IL-5-induced CD11b expression on HL-60 cells” value was 4.8 fold against 39D10; the “MOLAR RATIO CMX5/IL-5, inhibition of IL-5-induced CD11b expression on HL-60 cells” value is 4 molar ratio antibody:IL-5. Moreover, the “molar ratio … of binding inhibition” value in experiment [2] is about 1.4 molar ratio. Also, the IC50 in experiment [3] fell in the range of 0.5 to 1.1 nM.

B5: humanized antibody CMX5-1 (antibody, V domains shown)
VH: QVKLVQAGGGVVQPGRSLRLSCIVSGLSLTSNSVNWIRQAPGKGLEWVALIWSNGDTDYNSAIKSRFTISRDNSKSTLYMQMNSLRTEDTAVYFCAREYYGYFDYWGQGVLVTVSS
VL: DIQMTQSPSSLSVSVGDRVTITCLASEGISSYLAWYQQKPGLAPLLLIYGANSLQTGVPSRFSGSGSATDFTLTISSLQPEDIATYYCQQSYKFPNTFGQGTKVDVKR
notes: VH HIL maximal, VL LAY maximal; also called CMX1; antibody from clone CJA25
Take B5: in experiment [1], the “IC50 (pM), inhibition” value came out at 1470 pM; the “IC50 CMX5/IC50 39D10, inhibition of IL-5-induced CD11b expression on HL-60 cells” value came out at 8.8 fold against 39D10; the “MOLAR RATIO CMX5/IL-5, inhibition of IL-5-induced CD11b expression on HL-60 cells” value is 7.3 molar ratio antibody:IL-5. Also, the “molar ratio … of binding inhibition” value in experiment [2] is about 3.3 molar ratio. For the same molecule, the IC50 in experiment [3] is 1.5 to 3 nM.
